Measurements published in PMC1762332, “Catalases Are NAD(P)H-Dependent Tellurite Reductases” (PLoS ONE, 2006).

Substrate: O=[Te](O)O
Experiment: purified protein
Details: NADPH 10 mM (50 µl of 0.2 M in 1 ml), Tris-HCl pH 8.0 (50 mM), aerobic

B1: bovine liver catalase (Bos taurus) (protein)
chain: ADNRDPASDQMKHWKEQRAAQKPDVLTTGGGNPVGDKLNSLTVGPRGPLLVQDVVFTDEMAHFDRERIPERVVHAKGAGAFGYFEVTHDITRYSKAKVFEHIGKRTPIAVRFSTVAGESGSADTVRDPRGFAVKFYTEDGNWDLVGNNTPIFFIRDALLFPSFIHSQKRNPQTHLKDPDMVWDFWSLRPESLHQVSFLFSDRGIPDGHRHMNGYGSHTFKLVNANGEAVYCKFHYKTDQGIKNLSVEDAARLAHEDPDYGLRDLFNAIATGNYPSWTLYIQVMTFSEAEIFPFNPFDLTKVWPHGDYPLIPVGKLVLNRNPVNYFAEVEQLAFDPSNMPPGIEPSPDKMLQGRLFAYPDTHRHRLGPNYLQIPVNCPYRARVANYQRDGPMCMMDNQGGAPNYYPNSFSAPEHQPSALEHRTHFSGDVQRFNSANDDNVTQVRTFYLKVLNEEQRKRLCENIAGHLKDAQLFIQKKAVKNFSDVHPEYGSRIQALLDKYNEEKPKNAVHTYVQHGSHLSAREKANL
Km: 900 µM
